Data reported in patent US20250073311A1, “DOSAGE REGIME” (ZEALAND PHARMA A/S, priority 2021, published 2025).
Numbered stars: 1 amine (or outer) side, 2 acyl side, 3 side chain; on linkers, the order of the positions; unused ones are H or OH. Square brackets hold non-standard residues; d marks the D form. Side chains are listed from the residue outwards. * marks the point of attachment. C20 diacid = O=C(O)CCCCCCCCCCCCCCCCCCC(=O)*; C18 diacid = O=C(O)CCCCCCCCCCCCCCCCC(=O)*; γGlu = O=C(O)[C@H](CCC(=O)[*:2])N[*:1]; Stearoyl = CCCCCCCCCCCCCCCCCC(=O)*; AEEA = NCCOCCOCC(=O)O; Aib = CC(C)(N)C(=O)O

T1: human GLP-2 receptor (hGLP2-R) (human, UniProt O95838)
T1 sequence: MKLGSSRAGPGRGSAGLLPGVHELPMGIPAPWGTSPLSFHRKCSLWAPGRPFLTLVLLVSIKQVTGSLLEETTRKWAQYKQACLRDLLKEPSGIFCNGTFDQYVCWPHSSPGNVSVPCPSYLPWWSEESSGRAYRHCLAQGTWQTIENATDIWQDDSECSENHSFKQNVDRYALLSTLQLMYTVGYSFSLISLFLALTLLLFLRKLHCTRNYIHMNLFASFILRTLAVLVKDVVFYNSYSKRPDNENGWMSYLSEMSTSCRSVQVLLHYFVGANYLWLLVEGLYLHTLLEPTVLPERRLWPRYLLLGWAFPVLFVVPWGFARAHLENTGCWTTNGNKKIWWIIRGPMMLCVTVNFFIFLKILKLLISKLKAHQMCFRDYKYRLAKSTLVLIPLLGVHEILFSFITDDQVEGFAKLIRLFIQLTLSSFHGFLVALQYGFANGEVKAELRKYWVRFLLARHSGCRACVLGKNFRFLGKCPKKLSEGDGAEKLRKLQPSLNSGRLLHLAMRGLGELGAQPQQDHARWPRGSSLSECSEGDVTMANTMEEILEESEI

B1: Compound 34 (peptide)
peptide: H-H[Aib]EGSFTSELATILDK([AEEA-AEEA-γGlu-C20 diacid])QAARDFIAWLKQHKITD-OH
SMILES: CC[C@H](C)[C@H](NC(=O)[C@H](Cc1ccccc1)NC(=O)[C@H](CC(=O)O)NC(=O)[C@H](CCCNC(=N)N)NC(=O)[C@H](C)NC(=O)[C@H](C)NC(=O)[C@H](CCC(N)=O)NC(=O)[C@H](CCCCNC(=O)COCCOCCNC(=O)COCCOCCNC(=O)CC[C@H](NC(=O)CCCCCCCCCCCCCCCCCCC(=O)O)C(=O)O)NC(=O)[C@H](CC(=O)O)NC(=O)[C@H](CC(C)C)NC(=O)[C@@H](NC(=O)[C@@H](NC(=O)[C@H](C)NC(=O)[C@H](CC(C)C)NC(=O)[C@H](CCC(=O)O)NC(=O)[C@H](CO)NC(=O)[C@@H](NC(=O)[C@H](Cc1ccccc1)NC(=O)[C@H](CO)NC(=O)CNC(=O)[C@H](CCC(=O)O)NC(=O)C(C)(C)NC(=O)[C@@H](N)Cc1c[nH]cn1)[C@@H](C)O)[C@@H](C)O)[C@@H](C)CC)C(=O)N[C@@H](C)C(=O)N[C@@H](Cc1c[nH]c2ccccc12)C(=O)N[C@@H](CC(C)C)C(=O)N[C@@H](CCCCN)C(=O)N[C@@H](CCC(N)=O)C(=O)N[C@@H](Cc1c[nH]cn1)C(=O)N[C@@H](CCCCN)C(=O)N[C@H](C(=O)N[C@H](C(=O)N[C@@H](CC(=O)O)C(=O)O)[C@@H](C)O)[C@@H](C)CC
B2: Compound 40 (peptide)
peptide: H-H[Aib]EGSFTSELATILDEQAARDFIAWLIEHKITD[dK][dK][dK][dK][dK][dK]([γGlu-C18 diacid])-NH2
SMILES: CC[C@H](C)[C@H](NC(=O)[C@H](Cc1ccccc1)NC(=O)[C@H](CC(=O)O)NC(=O)[C@H](CCCNC(=N)N)NC(=O)[C@H](C)NC(=O)[C@H](C)NC(=O)[C@H](CCC(N)=O)NC(=O)[C@H](CCC(=O)O)NC(=O)[C@H](CC(=O)O)NC(=O)[C@H](CC(C)C)NC(=O)[C@@H](NC(=O)[C@@H](NC(=O)[C@H](C)NC(=O)[C@H](CC(C)C)NC(=O)[C@H](CCC(=O)O)NC(=O)[C@H](CO)NC(=O)[C@@H](NC(=O)[C@H](Cc1ccccc1)NC(=O)[C@H](CO)NC(=O)CNC(=O)[C@H](CCC(=O)O)NC(=O)C(C)(C)NC(=O)[C@@H](N)Cc1c[nH]cn1)[C@@H](C)O)[C@@H](C)O)[C@@H](C)CC)C(=O)N[C@@H](C)C(=O)N[C@@H](Cc1c[nH]c2ccccc12)C(=O)N[C@@H](CC(C)C)C(=O)N[C@H](C(=O)N[C@@H](CCC(=O)O)C(=O)N[C@@H](Cc1c[nH]cn1)C(=O)N[C@@H](CCCCN)C(=O)N[C@H](C(=O)N[C@H](C(=O)N[C@@H](CC(=O)O)C(=O)N[C@H](CCCCN)C(=O)N[C@H](CCCCN)C(=O)N[C@H](CCCCN)C(=O)N[C@H](CCCCN)C(=O)N[C@H](CCCCN)C(=O)N[C@H](CCCCNC(=O)CC[C@H](NC(=O)CCCCCCCCCCCCCCCCC(=O)O)C(=O)O)C(N)=O)[C@@H](C)O)[C@@H](C)CC)[C@@H](C)CC
B3: Compound 36 (peptide)
peptide: H-H[Aib]EGSFTSELATILDK(Stearoyl)QAARDFIAWLIQYKITD-OH
SMILES: CCCCCCCCCCCCCCCCCC(=O)NCCCC[C@H](NC(=O)[C@H](CC(=O)O)NC(=O)[C@H](CC(C)C)NC(=O)[C@@H](NC(=O)[C@@H](NC(=O)[C@H](C)NC(=O)[C@H](CC(C)C)NC(=O)[C@H](CCC(=O)O)NC(=O)[C@H](CO)NC(=O)[C@@H](NC(=O)[C@H](Cc1ccccc1)NC(=O)[C@H](CO)NC(=O)CNC(=O)[C@H](CCC(=O)O)NC(=O)C(C)(C)NC(=O)[C@@H](N)Cc1c[nH]cn1)[C@@H](C)O)[C@@H](C)O)[C@@H](C)CC)C(=O)N[C@@H](CCC(N)=O)C(=O)N[C@@H](C)C(=O)N[C@@H](C)C(=O)N[C@@H](CCCNC(=N)N)C(=O)N[C@@H](CC(=O)O)C(=O)N[C@@H](Cc1ccccc1)C(=O)N[C@H](C(=O)N[C@@H](C)C(=O)N[C@@H](Cc1c[nH]c2ccccc12)C(=O)N[C@@H](CC(C)C)C(=O)N[C@H](C(=O)N[C@@H](CCC(N)=O)C(=O)N[C@@H](Cc1ccc(O)cc1)C(=O)N[C@@H](CCCCN)C(=O)N[C@H](C(=O)N[C@H](C(=O)N[C@@H](CC(=O)O)C(=O)O)[C@@H](C)O)[C@@H](C)CC)[C@@H](C)CC)[C@@H](C)CC
B4: Compound 39 (peptide)
peptide: H-H[Aib]EGTFTSELATILDEQAARDFIAWLIAHKITD[dK][dK][dK][dK][dK][dK]([γGlu-C18 diacid])-NH2
SMILES: CC[C@H](C)[C@H](NC(=O)[C@H](CC(C)C)NC(=O)[C@H](Cc1c[nH]c2ccccc12)NC(=O)[C@H](C)NC(=O)[C@@H](NC(=O)[C@H](Cc1ccccc1)NC(=O)[C@H](CC(=O)O)NC(=O)[C@H](CCCNC(=N)N)NC(=O)[C@H](C)NC(=O)[C@H](C)NC(=O)[C@H](CCC(N)=O)NC(=O)[C@H](CCC(=O)O)NC(=O)[C@H](CC(=O)O)NC(=O)[C@H](CC(C)C)NC(=O)[C@@H](NC(=O)[C@@H](NC(=O)[C@H](C)NC(=O)[C@H](CC(C)C)NC(=O)[C@H](CCC(=O)O)NC(=O)[C@H](CO)NC(=O)[C@@H](NC(=O)[C@H](Cc1ccccc1)NC(=O)[C@@H](NC(=O)CNC(=O)[C@H](CCC(=O)O)NC(=O)C(C)(C)NC(=O)[C@@H](N)Cc1c[nH]cn1)[C@@H](C)O)[C@@H](C)O)[C@@H](C)O)[C@@H](C)CC)[C@@H](C)CC)C(=O)N[C@@H](C)C(=O)N[C@@H](Cc1c[nH]cn1)C(=O)N[C@@H](CCCCN)C(=O)N[C@H](C(=O)N[C@H](C(=O)N[C@@H](CC(=O)O)C(=O)N[C@H](CCCCN)C(=O)N[C@H](CCCCN)C(=O)N[C@H](CCCCN)C(=O)N[C@H](CCCCN)C(=O)N[C@H](CCCCN)C(=O)N[C@H](CCCCNC(=O)CC[C@H](NC(=O)CCCCCCCCCCCCCCCCC(=O)O)C(=O)O)C(N)=O)[C@@H](C)O)[C@@H](C)CC
B5: Compound 38 (peptide)
peptide: H-H[Aib]EGTFSSELATILDEQAARDFIAWLIAHKITD[dK][dK][dK][dK][dK][dK]([γGlu-C18 diacid])-NH2
SMILES: CC[C@H](C)[C@H](NC(=O)[C@H](CC(C)C)NC(=O)[C@H](Cc1c[nH]c2ccccc12)NC(=O)[C@H](C)NC(=O)[C@@H](NC(=O)[C@H](Cc1ccccc1)NC(=O)[C@H](CC(=O)O)NC(=O)[C@H](CCCNC(=N)N)NC(=O)[C@H](C)NC(=O)[C@H](C)NC(=O)[C@H](CCC(N)=O)NC(=O)[C@H](CCC(=O)O)NC(=O)[C@H](CC(=O)O)NC(=O)[C@H](CC(C)C)NC(=O)[C@@H](NC(=O)[C@@H](NC(=O)[C@H](C)NC(=O)[C@H](CC(C)C)NC(=O)[C@H](CCC(=O)O)NC(=O)[C@H](CO)NC(=O)[C@H](CO)NC(=O)[C@H](Cc1ccccc1)NC(=O)[C@@H](NC(=O)CNC(=O)[C@H](CCC(=O)O)NC(=O)C(C)(C)NC(=O)[C@@H](N)Cc1c[nH]cn1)[C@@H](C)O)[C@@H](C)O)[C@@H](C)CC)[C@@H](C)CC)C(=O)N[C@@H](C)C(=O)N[C@@H](Cc1c[nH]cn1)C(=O)N[C@@H](CCCCN)C(=O)N[C@H](C(=O)N[C@H](C(=O)N[C@@H](CC(=O)O)C(=O)N[C@H](CCCCN)C(=O)N[C@H](CCCCN)C(=O)N[C@H](CCCCN)C(=O)N[C@H](CCCCN)C(=O)N[C@H](CCCCN)C(=O)N[C@H](CCCCNC(=O)CC[C@H](NC(=O)CCCCCCCCCCCCCCCCC(=O)O)C(=O)O)C(N)=O)[C@@H](C)O)[C@@H](C)CC
B6: Compound 33 (peptide)
peptide: H-H[Aib]EGSFTSELATILDK([AEEA-γGlu-C18 diacid])QAARDFIAWLYQHKITD-OH
SMILES: CC[C@H](C)[C@H](NC(=O)[C@H](Cc1ccccc1)NC(=O)[C@H](CC(=O)O)NC(=O)[C@H](CCCNC(=N)N)NC(=O)[C@H](C)NC(=O)[C@H](C)NC(=O)[C@H](CCC(N)=O)NC(=O)[C@H](CCCCNC(=O)COCCOCCNC(=O)CC[C@H](NC(=O)CCCCCCCCCCCCCCCCC(=O)O)C(=O)O)NC(=O)[C@H](CC(=O)O)NC(=O)[C@H](CC(C)C)NC(=O)[C@@H](NC(=O)[C@@H](NC(=O)[C@H](C)NC(=O)[C@H](CC(C)C)NC(=O)[C@H](CCC(=O)O)NC(=O)[C@H](CO)NC(=O)[C@@H](NC(=O)[C@H](Cc1ccccc1)NC(=O)[C@H](CO)NC(=O)CNC(=O)[C@H](CCC(=O)O)NC(=O)C(C)(C)NC(=O)[C@@H](N)Cc1c[nH]cn1)[C@@H](C)O)[C@@H](C)O)[C@@H](C)CC)C(=O)N[C@@H](C)C(=O)N[C@@H](Cc1c[nH]c2ccccc12)C(=O)N[C@@H](CC(C)C)C(=O)N[C@@H](Cc1ccc(O)cc1)C(=O)N[C@@H](CCC(N)=O)C(=O)N[C@@H](Cc1c[nH]cn1)C(=O)N[C@@H](CCCCN)C(=O)N[C@H](C(=O)N[C@H](C(=O)N[C@@H](CC(=O)O)C(=O)O)[C@@H](C)O)[C@@H](C)CC

Biological target: T1, human GLP-2 receptor (hGLP2-R)
Assay: cell-based or functional assay

Point of comparison: B5, “EC50 GLP-2 (nM), cAMP AlphaScreen” value 0.89 nM. Against it:
- B1 — 6.8-fold lower, 0.13 nM
- B2 — 1.8-fold lower, 0.5 nM
- B3 — 3.6-fold higher, 3.2 nM
- B4 — within 1.5-fold, 0.98 nM
- H-H[Aib]EGSFTSELATILDK([AEEA-AEEA-AEEA-iso‑Lys-C20 diacid])QAARDFIAWLIQQKITD-OH [Compound 35] — 3-fold lower, 0.3 nM
- B6 — 12-fold lower, 0.072 nM

Biological target: human glucagon-like peptide 1 receptor (GLP-1R) (human, UniProt P43220)
Assay: cell-based or functional assay

Point of comparison: B6, “EC50 GLP-1 (nM), cAMP AlphaScreen” value 0.85 nM. Against it:
- B1 — 3-fold lower, 0.28 nM
- B2 — 11-fold lower, 0.074 nM
- B3 — 2.7-fold lower, 0.32 nM
- B4 — 19-fold lower, 0.044 nM
- H-H[Aib]EGSFTSELATILDK([AEEA-AEEA-AEEA-iso‑Lys-C20 diacid])QAARDFIAWLIQQKITD-OH [Compound 35] — 8.6-fold lower, 0.099 nM
- B5 — 3.4-fold lower, 0.25 nM
